Test results taken from the DeepSol protein solubility set.

Assay: soluble on expression in E. coli; label from the status in PepcDB or PDB records

MAVNLNPPQAGQLPAVAGVELLVAEAGIKTPGRKDVLVVKLDKGNTVAGVFTRNRFCAAPVQLCQEHLAAGVQIRALVVNTGNANAGTGFDGRARALSVCRAVAERDQLQTEQVLPFSTGVILEPLPADKIVAALPALRQADWAEAAEAIMTTDTLAKAASRRLDIGGKAVTVTGIAKGSGMIHPNMATMLGFVATDAAVTRPMLNQLVREVADQSFNSITVDGDTSTNDSFILISTGQSGAELIDSAEQPAYQQLKQALLEVAIELAQAIVRDGEGATKFITVDVNGGRSVAECKDVAYAIARSPLVKTAFFASDPNLGRLLAAIGYAGVADLDVDRLSLYLDDVLVACEGGRNPAYKEAQGQAVMNQSEITVRVELGRGSASARVWTCDFSYEYVRINADYRSLEHHHHHH
soluble on expression in E. coli: not soluble

MPKIVILPHQDLCPDGAVLEANSGETILDAALRNGIEIEHACEKSCACTTCHCIVREGFDSLPESSEQEDDMLDKAWGLEPESRLSCQARVTDEDLVVEIPRYTINHAREH
soluble on expression in E. coli: soluble

MELVIISGRSGSGKSVALRALEDVGYYCVDNLPFPLIAELASFLLASDCSAVVSLDIRNFPENLTRIDELLHQLSQLTINTKMIFLDCESATLIRRYSDSRRLHPLSNQDLSLASAIELENTLLDPLRQQADYLIDTTHSSPHELAANLRHILRGSTEKELNIVFESFGFKYGLSADADYVFDVRFLPNPHWHAELRAMTGLEQPVIDFLERQTEVHNFIYQTRNYLETWLPMLEKNNRSYLTIAFGCTGGKHRSVFITEQLAKYFQSRGKNVKIRHRSLEKY
soluble on expression in E. coli: not soluble

MAVVGYISYDNRDTFMNAKDVLSTEIEAVNGKADTKESKECEDTQASDEVALETDSTEEILNAGETVLTSASTESEECVAQVKLGREQVRSKNKEALQKIIDDAGVSEAEKKSAVDAMVKLTENAQMEEDAQMMLEAKGFKNAVVSLSDECCDVIVGKDDVTDEKRAQIEDIIKRKTNIGASNIVISTMD
soluble on expression in E. coli: not soluble

IDSGLSPSVLMASNSGRRSAPPLNLTGLPGTEKLNEKEKELCQVVRLVPGAYLEYKSALLNECHKQGGLRLAQARALIKIDVNKTRKIYDFLIREGYITKA
soluble on expression in E. coli: soluble

MGSDKIHHHHHHKITQDDLKQLDGNLTPLGAERAANKDGTIPAWTGKWLGAPTGVAYKAGERYQDPYADEKPLYVITAQNMAQYDKQLTDGLKALFKKYPETFKMPIYATHRDFRYDDGTYKAIRTYAPQIEMLGEGNGVKNSPPTLPYPIPKTGLELLWNLRFASAIESERAVYDQAVVYADGKVAWGKVKYEIWSPKDGQHFDAKAPMNARAFYRMYTELPLRDRGSIITGYTVYDSPEPDSNRAWSYNPGTRRVRQAPEYGYDQPFGPGGFRTVDDDHFFNGSPERYDWKIVGKRELYVPYNNYRMSSPSIKYQDLLTKGHADPSNMRYELHRVWVLEATLKQGFRHQYAKRIIYIDEDSWYGVLADNYDSRGQLWRTNIQANVYAYDAKRFYPTAVFFHDLISGAYLADRLTNEGQPPRLNSEPKYVEAYFSPDAARGAGN
soluble on expression in E. coli: not soluble

MITKRQLSILNAIVEDYVDFGQPIGSKTLIHRHHLDVSPATIRNEMKQLEEMHFIEKTHTSSGRVPSESGIRYYVNRLLEQTSHQSQNKIQRLNQLLIENHYDSSTALTNFAHELSMKSQYATLVVRPNHKQDVINDIHLIRANNHLIILVMVFSSGHVENIHFVSHAQLNNINLNKIANFLTEHFSFNRKVLTQNIESYFSQKEELLLANEVVEMINLQIGNQSNSIYMGGKVKLIDALNESNVSSIQPILQYIESNKITELLEDISTSQINVRIGKEIDDSLSDISIVTSQYHFDESLKGQIAVIGPTAMHYQNVIQLLNRIW
soluble on expression in E. coli: not soluble

MIVSFMVAMDENRVIGKDNNLPWRLPSELQYVKKTTMGHPLIMGRKNYEAIGRPLPGRRNIIVTRNEGYHVEGCEVAHSVEEVFELCKNEEEIFIFGGAQIYDLFLPYVDKLYITKIHHAFEGDTFFPEMDMTNWKEVFVEKGLTDEKNPYTYYYHVYEKQQLEHHHHHHHH
soluble on expression in E. coli: soluble

MNCEKCNQNPATIQLYMNINGKRVEMPLCASCYAEVRNQANFGSNEFPGASGSPFDDIFRQLSGAANQANREQRSQANAQVQTQTAGGGNGILDEFGTNLTDMAKNEQLDPVIGRDKEIKRVIEILNRRNKNNPVLIGEPGVGKTAVVEGLANAIVAGDVPSKLMNKEVILLDVASLVSGTGIRGQFEERMKQLIKELQERKNTILFIDEVHTIVGAGSAEGSMDAGNILKPALARGDLQMIGATTLKEYRTIEKDAALERRFQPVTVSEPSTKETLTILNGLKPKYEDFHEVVYSPEALTAAVELSARYIQDRHLPDKAIDLMDEVGSKYNLSIEKLDENTVSERVARLEDEKNQALQMEDYEKAAKVRDEITRLEENKTSNSFSERPVIQASDIQAIIEEKTGIPVGRLQEDEQSKMKNLERNLTGKVIGQEDAVKKVAKAIRRSRVGLKSKNRPIGSFLFVGPTGVGKTELGRTLARELFGTSEAMIRLDMSEFMEKHSISKLIGSPPGYVGHEEAGQLTEKVRRNPYSIILLDEIEKAHPDVQHMFLQILEDGRLTDSQGRTVSFKDTVIIMTSNAGATDTEASVGFNTTTETKLEKGSDILAKLGAYFKPEFLNRLDSVIEFKSLEKDDLVQIIDLMLVDLNEMLAQEGVTIDVSKEVKEHLIDLGYDPKFGARPLRRTIQEHLEDTIADSLIDQPEAKNLVATLNDNKEITITEQVTA
soluble on expression in E. coli: not soluble

MVNNSKTILITGCSHGGIGYATAVHLKNLGHRVFASARQQKDVEALSQEGFETYLIDVTNYEYIDNALADILNKTGGSLDVIFNNAGYGQAGALEDIDTKFLKQQFETNVFGLHNLTYKALKIMRKQGYGKIIQHSSVLGLVAMKYRGAYNASKYAIEGLTDTMRLELRDSNIFITSLNTGPITSKFRENSIKTITNVNYDSSVHKQQYEKILARQHKKVPFNEPAISVAKVVEKIINCDKPKPRYYITKATWIMASLKRILPTNILDNFLNRY
soluble on expression in E. coli: not soluble

MSADAYHPPTTSPRLETLDVLSIGMSLDVFRQGQVWKALQEQNAAQAEALHVGSILPMDPKKYPTSADDKDMAYEKRQADALELGLKNFLEKWPIPTVTVVRGWDPSTPNLRFTPEETRESLSVKVNDLRVPAGLHWHRIANLQDGIICNDTPEGVLEALFSLFERNPDLPAVLVYANEGISMAGALSSRDVTLKSLGAVSGPRIPGTLTDAMVALIVGRPERVDWLRQFAPYTKVNENRIDPEFRGWGWRKPPVEFRPTPFIPQPWTERALEQWDALPVLARLHRPVSVPLTHPDTGERLKREALTAQLAAAWKTASAGLRPAPARLFYDGGLNATPLAELTPALGAAQSSLDLLDSRESYDLTQRLGDTGAASPFVGITLATMASYLNGDSSMVMPLRRKDQATLIGISSPTPGKKPVHDPFGVDLLPQTASGDGPPPSADPVAPASRLTTRLPPGEDYALEEFLSSLKPSTDWQDDL
soluble on expression in E. coli: not soluble

MVEKEKKDEEETRKITISVKGIRDDVYRNVSELARHTGKTIGEITNDAYRTFLGTVEGVRNVSQSFIEGAKGAIPRYIDNFKKLEITADDLKDLGQKVAFRNIDELTFKNITDEEFSKYVAFIDGVKVLKIPKTVKKTTVIKISTFVDEIIQE
soluble on expression in E. coli: not soluble

SPSTNRKYPPLPVDKLEEEINRRMADDNKLFREEFNALPACPIQATCEAASKEENKEKNRYVNILPYDHSRVHLTPVEGVPDSDYINASFINGYQEKNKFIAAQGPKEETVNDFWRMIWEQNTATIVMVTNLKERKECKCAQYWPDQGCWTYGNVRVSVEDVTVLVDYTVRKFCIQQVGDVTNRKPQRLITQFHFTSWPDFGVPFTPIGMLKFLKKVKACNPQYAGAIVVHCSAGVGRTGTFVVIDAMLDMMHSERKVDVYGFVSRIRAQRCQMVQTDMQYVFIYQALLEHYLYGDTELEVT
soluble on expression in E. coli: soluble

SLDKIEHIGIAVKNLEAGNSLYEKLMGVPHYKIEEVASEGVRTSFFKTGPNKIELLEATNDDSAIAKFIEKKGEGIHHIAFAVENIVEEMERLKKEGFIILNEKPKKGADNKLVAFVHPKTAGGVLIELCQEINEG
soluble on expression in E. coli: soluble

GPLGSMPYSDAKAMLDEVAKIRELGVQRVTRIENLENAKKLWDNANSMLEKGNISGYLKAANELHKFMKEKNLKEDDLRPELSDKTISPKGYAILQSLWGAASDYSRAAATLTESTVEPGLVSAVNKMSAFFMDCKLSPNERATPDPDFKVGKSKILVGIMQFIKDVADPTSKIWMHNTKALMNHKIAAIQKLERSNNVNDETLESVLSSKGENLSEYLSYKYATKDEGREHRYTASTENFKNVKEKYQQMRGDALKTEILADFKDKLAEATDEQSLKQIVAELKSKDEYRILAKGQGLTTQLLGLKTSSVSSFEKMVEETRESIKSQERQTIKIK
soluble on expression in E. coli: soluble

TMEPERLFNLIVKTTVDTLRAQIGYIILYSPREKNLQVTTLLGHTIPEGSTTTLPMKQSSVSTWVIENRRPLLITTMDEWPQFDRYSSLGYERRTLICAPLQIKDEIIGTITVVNKDDNSTYTIQELELLSTIAAQASIAIKNAQLYDEQQATYLHTIQALVSAIEAS
soluble on expression in E. coli: not soluble

MEKMHITNQEHDAFVKSHPNGDLLQLTKWAETKKLTGWYARRIAVGRDGEVQGVAQLLFKKVPKLPYTLCYISRGFVVDYSNKEALNALLDSAKEIAKAEKAYAIKIDPDVEVDKGTDALQNLKALGFKHKGFKEGLSKDYIQPRMTMITPIDKNDDELLNSFERRNRSKVRLALKRGTTVERSDREGLKTFAELMKITGERDGFLTRDISYFENIYDALHEDGDAELFLVKLDPKENIAKVNQELNELHAEIAKWQQKMETSEKQAKKAQNMINDAQNKIAKNEDLKRDLEALEKEHPEGIYLSGALLMFAGSKSYYLYGASSNEFRDFLPNHHMQYTMMKYAREHGATTYDFGGTDNDPDKDSEHYGLWAFKKVWGTYLSEKIGEFDYILNQPLYQLIEQVKPRLTKAKIKISRKLKRK
soluble on expression in E. coli: not soluble

MTSLLGGNFTEALHTVLSNQLNVMSQKTSDSEAPTTFSSSSSSDSPPYDPMSLVSAGISDQNGLMDMFKDGLFATLVPPTDVANSDTASSESPEPAAQSHEAAEETGGTEEQQAAALSLIQSFGTPIPSKFEDIESQFFSEATIRDLMPVLASVQGSPPHNQNQLSFGSTSSPSAWARNAGRKKSHPVWDFFKDMKDSTGAGGVICLHCSWSGDDRSPNNLRTHLKKFHSDDGIFNRFSEKLAKMARRKQQESTLVIDPSHSKDDSAFFEGSSGSDAPSTIDTTQLMALLEQSAAAAAAAAAASSSENPITSSLLKKDRTTTTTTEKELSPLTAARASEILFAAGMRPHKKTSEIWEHYKCLNEKQNVECIYCWKVLKRNDSSTKSMWGHMNAYHQDILRDGTTRKKVKRPANGLDFDETPTQPYVKRVRGGAGSSSSLPSMVKMDQKPMLDSMAFLQQLQQSGSLTEADFSSFANGSSLNFLDSLPKSSEVININSGFVKKEEMEEDTENHVEAASSSSSDERIKSETPDTYGSPNTSTTDQNEQLAAFVSSLSNSNPMMFAMLNAAGNSTSSAPAPPKSSTSQQRSSSPPSAHDTSNGSMSPSKVDKDPSSFSLSEGHCAAQLMSMALDLEMTMSYHKRRSEIELCFESNRTVDESQGAASRKVICLTDLGKEIKITERINGSVKDTELWVKTDFNQFHWAIRGKCQKSADASRVPPLVVKPRSSRRSPQPVRRRPPGPRDVSSPTHSFLMRWSFLCTL
soluble on expression in E. coli: not soluble
